Test results reported in article doi:10.1101/720938 (bioRxiv, 2019).

Target: the molecule itself
Experiment: cryo-EM structure

B1: PilA5 (TT_C1836), pilin of Thermus thermophilus HB27 (subunit of the narrow type IV pilus) (natural protein, T. thermophilus HB27, UniProt Q72GL2 6-116, looked up)
chain: FTLIELAIVIVIIGILVAIAVPRFVDLTDQANQANVDATAAAVRSAYAIATVQAKGIPTCDQVFANPEGGSTSGSTWTSSDNSTTVSCNASADTFTISRGGKTRTLNLTVN
modifications: extra density at Ser73, suggested to be O-linked glycosylation; disulphide bond Cys60-Cys88
- binding result: binds

B2: PilA4, major pilin of Thermus thermophilus HB27 (subunit of the wide type IV pilus) (natural protein, T. thermophilus HB27, UniProt Q72JC0 7-131, looked up)
chain: FTLIELLIVIAIIAILAAVLIPNLLAARKRANDTVVTAYLNDAVKFQEMYQIDNNSYTSNQAALISLGLKSTPANVTFSIVSASANSYCMIAGHSGGTVWFAATPDKGVYKTNTAVTSSQPESCP
modifications: extra densities at Ser59, Ser66 and Ser71, suggested to be O-linked glycosylation; disulphide bond Cys89-Cys124
- binding result: binds
